Consider six molecules from patent US20140087995A1 (published 2014).

Numbered stars: 1 amine (or outer) side, 2 acyl side, 3 side chain; on linkers, the order of the positions; unused ones are H or OH. Bridge positions count the residues as written; N and C are the ends. Side chains are listed from the residue outwards. Ends that are not written are not given here. * marks the point of attachment. C20 diacid = O=C(O)CCCCCCCCCCCCCCCCCCC(=O)*; γGlu = O=C(O)[C@H](CCC(=O)[*:2])N[*:1]; AEEA = NCCOCCOCC(=O)O

The target in this test is T1, human calcitonin receptor (human, UniProt P30988 25-474).
T1 sequence (looked up): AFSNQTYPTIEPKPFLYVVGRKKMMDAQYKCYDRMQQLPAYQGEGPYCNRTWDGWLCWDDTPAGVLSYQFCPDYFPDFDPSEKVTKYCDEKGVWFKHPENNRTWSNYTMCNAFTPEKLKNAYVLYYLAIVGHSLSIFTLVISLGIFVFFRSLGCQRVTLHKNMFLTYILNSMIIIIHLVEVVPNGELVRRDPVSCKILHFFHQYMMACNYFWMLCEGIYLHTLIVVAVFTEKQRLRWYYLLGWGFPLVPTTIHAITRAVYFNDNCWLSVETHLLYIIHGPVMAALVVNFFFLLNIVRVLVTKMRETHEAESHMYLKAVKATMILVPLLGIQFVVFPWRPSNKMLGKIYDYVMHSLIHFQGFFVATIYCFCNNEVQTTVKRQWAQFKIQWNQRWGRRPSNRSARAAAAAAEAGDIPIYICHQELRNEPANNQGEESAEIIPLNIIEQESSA
Briefly: cell-based or functional assay.

B1: N^ε1-[2-[2-[2-[[(4S)-4-carboxy-4-(19-carboxynonadecanoylamino)butanoyl]amino]ethoxy]ethoxy]acetyl]-[Arg17,Pro21,Pro27,Pro34,His35]-h-amylin (peptide)
peptide: K([AEEA-γGlu-C20 diacid])CNTATCATQRLANFLRHSSPNFGAIPSSTNVGPHTY-NH2
modifications: disulfide 2-7; N-terminus assumed
SMILES: CC[C@H](C)[C@H](NC(=O)[C@H](C)NC(=O)CNC(=O)[C@H](Cc1ccccc1)NC(=O)[C@H](CC(N)=O)NC(=O)[C@@H]1CCCN1C(=O)[C@H](CO)NC(=O)[C@H](CO)NC(=O)[C@H](Cc1c[nH]cn1)NC(=O)[C@H](CCCNC(=N)N)NC(=O)[C@H](CC(C)C)NC(=O)[C@H](Cc1ccccc1)NC(=O)[C@H](CC(N)=O)NC(=O)[C@H](C)NC(=O)[C@H](CC(C)C)NC(=O)[C@H](CCCNC(=N)N)NC(=O)[C@H](CCC(N)=O)NC(=O)[C@@H](NC(=O)[C@H](C)NC(=O)[C@@H]1CSSC[C@H](NC(=O)[C@@H](N)CCCCNC(=O)COCCOCCNC(=O)CC[C@H](NC(=O)CCCCCCCCCCCCCCCCCCC(=O)O)C(=O)O)C(=O)N[C@@H](CC(N)=O)C(=O)N[C@@H]([C@@H](C)O)C(=O)N[C@@H](C)C(=O)N[C@@H]([C@@H](C)O)C(=O)N1)[C@@H](C)O)C(=O)N1CCC[C@H]1C(=O)N[C@@H](CO)C(=O)N[C@@H](CO)C(=O)N[C@H](C(=O)N[C@@H](CC(N)=O)C(=O)N[C@H](C(=O)NCC(=O)N1CCC[C@H]1C(=O)N[C@@H](Cc1c[nH]cn1)C(=O)N[C@H](C(=O)N[C@@H](Cc1ccc(O)cc1)C(N)=O)[C@@H](C)O)C(C)C)[C@@H](C)O
notes: analogue of human amylin; also called compound 58
On to B1, for which the “hCTR funct. EC50” value came to 1030 pM.

B2: N^ε1-[2-[2-[2-[[(4S)-4-carboxy-4-(19-carboxynonadecanoylamino)butanoyl]amino]ethoxy]ethoxy]acetyl]-[His14,Arg17,Pro21,Pro27]-h-amylin (peptide)
peptide: K([AEEA-γGlu-C20 diacid])CNTATCATQRLAHFLRHSSPNFGAIPSSTNVGSNTY-NH2
modifications: disulfide 2-7; N-terminus assumed
SMILES: CC[C@H](C)[C@H](NC(=O)[C@H](C)NC(=O)CNC(=O)[C@H](Cc1ccccc1)NC(=O)[C@H](CC(N)=O)NC(=O)[C@@H]1CCCN1C(=O)[C@H](CO)NC(=O)[C@H](CO)NC(=O)[C@H](Cc1c[nH]cn1)NC(=O)[C@H](CCCNC(=N)N)NC(=O)[C@H](CC(C)C)NC(=O)[C@H](Cc1ccccc1)NC(=O)[C@H](Cc1c[nH]cn1)NC(=O)[C@H](C)NC(=O)[C@H](CC(C)C)NC(=O)[C@H](CCCNC(=N)N)NC(=O)[C@H](CCC(N)=O)NC(=O)[C@@H](NC(=O)[C@H](C)NC(=O)[C@@H]1CSSC[C@H](NC(=O)[C@@H](N)CCCCNC(=O)COCCOCCNC(=O)CC[C@H](NC(=O)CCCCCCCCCCCCCCCCCCC(=O)O)C(=O)O)C(=O)N[C@@H](CC(N)=O)C(=O)N[C@@H]([C@@H](C)O)C(=O)N[C@@H](C)C(=O)N[C@@H]([C@@H](C)O)C(=O)N1)[C@@H](C)O)C(=O)N1CCC[C@H]1C(=O)N[C@@H](CO)C(=O)N[C@@H](CO)C(=O)N[C@H](C(=O)N[C@@H](CC(N)=O)C(=O)N[C@H](C(=O)NCC(=O)N[C@@H](CO)C(=O)N[C@@H](CC(N)=O)C(=O)N[C@H](C(=O)N[C@@H](Cc1ccc(O)cc1)C(N)=O)[C@@H](C)O)C(C)C)[C@@H](C)O
notes: analogue of human amylin; also called compound 69
With B2, the “hCTR funct. EC50” value was 1250 pM.

B3: N^ε1-[2-[2-[2-[[(4S)-4-carboxy-4-(19-carboxynonadecanoylamino)butanoyl]amino]ethoxy]ethoxy]acetyl]-[Arg17,Pro21,Pro27,Pro34]-h-amylin (peptide)
peptide: K([AEEA-γGlu-C20 diacid])CNTATCATQRLANFLRHSSPNFGAIPSSTNVGPNTY-NH2
modifications: disulfide 2-7; N-terminus assumed
SMILES: CC[C@H](C)[C@H](NC(=O)[C@H](C)NC(=O)CNC(=O)[C@H](Cc1ccccc1)NC(=O)[C@H](CC(N)=O)NC(=O)[C@@H]1CCCN1C(=O)[C@H](CO)NC(=O)[C@H](CO)NC(=O)[C@H](Cc1c[nH]cn1)NC(=O)[C@H](CCCNC(=N)N)NC(=O)[C@H](CC(C)C)NC(=O)[C@H](Cc1ccccc1)NC(=O)[C@H](CC(N)=O)NC(=O)[C@H](C)NC(=O)[C@H](CC(C)C)NC(=O)[C@H](CCCNC(=N)N)NC(=O)[C@H](CCC(N)=O)NC(=O)[C@@H](NC(=O)[C@H](C)NC(=O)[C@@H]1CSSC[C@H](NC(=O)[C@@H](N)CCCCNC(=O)COCCOCCNC(=O)CC[C@H](NC(=O)CCCCCCCCCCCCCCCCCCC(=O)O)C(=O)O)C(=O)N[C@@H](CC(N)=O)C(=O)N[C@@H]([C@@H](C)O)C(=O)N[C@@H](C)C(=O)N[C@@H]([C@@H](C)O)C(=O)N1)[C@@H](C)O)C(=O)N1CCC[C@H]1C(=O)N[C@@H](CO)C(=O)N[C@@H](CO)C(=O)N[C@H](C(=O)N[C@@H](CC(N)=O)C(=O)N[C@H](C(=O)NCC(=O)N1CCC[C@H]1C(=O)N[C@@H](CC(N)=O)C(=O)N[C@H](C(=O)N[C@@H](Cc1ccc(O)cc1)C(N)=O)[C@@H](C)O)C(C)C)[C@@H](C)O
notes: analogue of human amylin; also called compound 50
For B3, the “hCTR funct. EC50” value stood at 662 pM.

B4: N^ε1-[2-[2-[2-[[(4S)-4-carboxy-4-(19-carboxynonadecanoylamino)butanoyl]amino]ethoxy]ethoxy]acetyl]-[Lys14,Arg17,Pro21,Pro27,Pro31]-h-amylin (peptide)
peptide: K([AEEA-γGlu-C20 diacid])CNTATCATQRLAKFLRHSSPNFGAIPSSTPVGSNTY-NH2
modifications: disulfide 2-7; N-terminus assumed
SMILES: CC[C@H](C)[C@H](NC(=O)[C@H](C)NC(=O)CNC(=O)[C@H](Cc1ccccc1)NC(=O)[C@H](CC(N)=O)NC(=O)[C@@H]1CCCN1C(=O)[C@H](CO)NC(=O)[C@H](CO)NC(=O)[C@H](Cc1c[nH]cn1)NC(=O)[C@H](CCCNC(=N)N)NC(=O)[C@H](CC(C)C)NC(=O)[C@H](Cc1ccccc1)NC(=O)[C@H](CCCCN)NC(=O)[C@H](C)NC(=O)[C@H](CC(C)C)NC(=O)[C@H](CCCNC(=N)N)NC(=O)[C@H](CCC(N)=O)NC(=O)[C@@H](NC(=O)[C@H](C)NC(=O)[C@@H]1CSSC[C@H](NC(=O)[C@@H](N)CCCCNC(=O)COCCOCCNC(=O)CC[C@H](NC(=O)CCCCCCCCCCCCCCCCCCC(=O)O)C(=O)O)C(=O)N[C@@H](CC(N)=O)C(=O)N[C@@H]([C@@H](C)O)C(=O)N[C@@H](C)C(=O)N[C@@H]([C@@H](C)O)C(=O)N1)[C@@H](C)O)C(=O)N1CCC[C@H]1C(=O)N[C@@H](CO)C(=O)N[C@@H](CO)C(=O)N[C@H](C(=O)N1CCC[C@H]1C(=O)N[C@H](C(=O)NCC(=O)N[C@@H](CO)C(=O)N[C@@H](CC(N)=O)C(=O)N[C@H](C(=O)N[C@@H](Cc1ccc(O)cc1)C(N)=O)[C@@H](C)O)C(C)C)[C@@H](C)O
notes: analogue of human amylin; also called compound 74
In the case of B4, the “hCTR funct. EC50” value is 37500 pM.

B5: N^ε1-[2-[2-[2-[[(4S)-4-carboxy-4-(19-carboxynonadecanoylamino)butanoyl]amino]ethoxy]ethoxy]acetyl]-[His14,Arg17,Pro21,Pro27,Pro34]-h-amylin (peptide)
peptide: K([AEEA-γGlu-C20 diacid])CNTATCATQRLAHFLRHSSPNFGAIPSSTNVGPNTY-NH2
modifications: disulfide 2-7; N-terminus assumed
SMILES: CC[C@H](C)[C@H](NC(=O)[C@H](C)NC(=O)CNC(=O)[C@H](Cc1ccccc1)NC(=O)[C@H](CC(N)=O)NC(=O)[C@@H]1CCCN1C(=O)[C@H](CO)NC(=O)[C@H](CO)NC(=O)[C@H](Cc1c[nH]cn1)NC(=O)[C@H](CCCNC(=N)N)NC(=O)[C@H](CC(C)C)NC(=O)[C@H](Cc1ccccc1)NC(=O)[C@H](Cc1c[nH]cn1)NC(=O)[C@H](C)NC(=O)[C@H](CC(C)C)NC(=O)[C@H](CCCNC(=N)N)NC(=O)[C@H](CCC(N)=O)NC(=O)[C@@H](NC(=O)[C@H](C)NC(=O)[C@@H]1CSSC[C@H](NC(=O)[C@@H](N)CCCCNC(=O)COCCOCCNC(=O)CC[C@H](NC(=O)CCCCCCCCCCCCCCCCCCC(=O)O)C(=O)O)C(=O)N[C@@H](CC(N)=O)C(=O)N[C@@H]([C@@H](C)O)C(=O)N[C@@H](C)C(=O)N[C@@H]([C@@H](C)O)C(=O)N1)[C@@H](C)O)C(=O)N1CCC[C@H]1C(=O)N[C@@H](CO)C(=O)N[C@@H](CO)C(=O)N[C@H](C(=O)N[C@@H](CC(N)=O)C(=O)N[C@H](C(=O)NCC(=O)N1CCC[C@H]1C(=O)N[C@@H](CC(N)=O)C(=O)N[C@H](C(=O)N[C@@H](Cc1ccc(O)cc1)C(N)=O)[C@@H](C)O)C(C)C)[C@@H](C)O
notes: analogue of human amylin; also called compound 68
B5: the “hCTR funct. EC50” value turned out to be 932 pM.

B6: N^ε1-[2-[2-[2-[[(4S)-4-carboxy-4-(19-carboxynonadecanoylamino)butanoyl]amino]ethoxy]ethoxy]acetyl]-[His14,Arg17,Pro21,Pro27,Pro31]-h-amylin (peptide)
peptide: K([AEEA-γGlu-C20 diacid])CNTATCATQRLAHFLRHSSPNFGAIPSSTPVGSNTY-NH2
modifications: disulfide 2-7; N-terminus assumed
SMILES: CC[C@H](C)[C@H](NC(=O)[C@H](C)NC(=O)CNC(=O)[C@H](Cc1ccccc1)NC(=O)[C@H](CC(N)=O)NC(=O)[C@@H]1CCCN1C(=O)[C@H](CO)NC(=O)[C@H](CO)NC(=O)[C@H](Cc1c[nH]cn1)NC(=O)[C@H](CCCNC(=N)N)NC(=O)[C@H](CC(C)C)NC(=O)[C@H](Cc1ccccc1)NC(=O)[C@H](Cc1c[nH]cn1)NC(=O)[C@H](C)NC(=O)[C@H](CC(C)C)NC(=O)[C@H](CCCNC(=N)N)NC(=O)[C@H](CCC(N)=O)NC(=O)[C@@H](NC(=O)[C@H](C)NC(=O)[C@@H]1CSSC[C@H](NC(=O)[C@@H](N)CCCCNC(=O)COCCOCCNC(=O)CC[C@H](NC(=O)CCCCCCCCCCCCCCCCCCC(=O)O)C(=O)O)C(=O)N[C@@H](CC(N)=O)C(=O)N[C@@H]([C@@H](C)O)C(=O)N[C@@H](C)C(=O)N[C@@H]([C@@H](C)O)C(=O)N1)[C@@H](C)O)C(=O)N1CCC[C@H]1C(=O)N[C@@H](CO)C(=O)N[C@@H](CO)C(=O)N[C@H](C(=O)N1CCC[C@H]1C(=O)N[C@H](C(=O)NCC(=O)N[C@@H](CO)C(=O)N[C@@H](CC(N)=O)C(=O)N[C@H](C(=O)N[C@@H](Cc1ccc(O)cc1)C(N)=O)[C@@H](C)O)C(C)C)[C@@H](C)O
notes: analogue of human amylin; also called compound 61
As to B6, the “hCTR funct. EC50” value was found to be 554 pM.
